Measurements published in the DeepSol protein solubility set.

assay: soluble on expression in E. coli; label from the status in PepcDB or PDB records

Soluble on expression in E. coli, not soluble:
MGSDKIHHHHHHMSRFFRHYQAFHAIIETGTVTGAAERLGVSQPAISNLLAQLERRTRLKLFERNRGRLLPTPEAMVLFDEIDTVIRGLGQVSQAVVDLQNQKAGQLQVATNHAMAFGFMPEQIARFAADKPNLTVAFQSQYSAKIQDWVMAGLFEIGICEQPVRTDGLDWVPFFFEIQCAVPADSPLARHEELTPILLDDVPFIVMGADHMVTRRAREAFHREGANLRIRCQTDLFRNALNLVKQGLGVTLVDPFTLSSDDRSGYVLRRFAPRILLDVIIVTARGRPISAIGAQFLEQVSASMTTLATAAPDPAEP
MGSDKIHHHHHHMSRLIEQIKQKDACAFTHGGKFHADDVFSSALLLYINPEISITRGNSVPDDFTGIVFDIGRGEFDHHQKDSRIRENGVPYAAFGLLWEAVGADILGKELAVKFDESFVQPLDNNDNTGEKNELATLIGNFNPSWDYEGGSDEAFFQAVSVAGMILENKFERYRGNERADKRVEEVLAKHDPASRILVLPEFIPCQKALSETDIAFVIFPSNRGGFCIQPQKREYSMNYKCSFPAEWLGLEGEELVNATGIPGAIFCHKGGFIMTVKEQDEAVKACEKALSLHKDSSVIVWYGSKGDTAAMACDSQTDELLINVAKARGIKGVHICHVDAMPVPQLELTELDSETAYAEVLMEKPQWKAYVKEQVKQIVKYRPEAVYVEGNAFETYPVIRALRKKHIPVLTMIENKEKKIMVRIP
MGSDKIHHHHHHMSRSIVEVYASWMPIDTPLLVGHLTFAETSRGGVFSFTYDKHFLASNYRLQIDPLLALHSGELYNDSADKNFRAFLDSSPDRWGRILMQRRAAIECRKGIRASAKLTELDYLLGVHDSYRMGGIRFKTAASLDFLDNNTEFSAPPMTSLRELEQAAMNIERDDNIDSDDYYRWLKMLISPGSSLGGARPKACVTDSEGHLWIAKFPNQNDTFDVGAWEMVCYQLALAAGIDMFPSEIRKFSTEHHTFLTKRFDRVGGKRIHFSSAMTQLQYYDGEQSDGASYLEIAEFLSNNGAQTKADLAQLWRRIVFNIAVSNTDDHLRNHGFLLSDKGWKLSPAYDLNPIVGKHGLHLNITDTANELDYALAFEVIDFFRLSREDATRIYDDVMGAVKGWQTVASRLGISRNEQLTKQEAFNV
MGSDKIHHHHHHMSRTLHAQTHAWLKVFAISARHLSFTRAAEELHVTTGAVSQQIKQLETRLGFKLFRRLPRRLELTDEGQRLAAVVDQAYDAVGQEVRRLRTGVMSGVLRLRCVPSFLAKWLMPRLTRLQARFPDIELHVASEDSNLSLREGEFELAIDLNDGRYAGFQITTLMDEEIFAVCSPQLLRRRPPLVRPDDLGYYPLLHDVTAWRGSHDYAEWEHYLHALGAASVNVQRGYTFNRNHLTVEAAIAGMGVAIARRTLITNELDTGALIAPFAGTVATGKSYGLVYHPGALDDRRVRAVHDWIVEEAARSTAH
MGSDKIHHHHHHMSSAPIIYALSNNSLLIDAAHLDANNVLTIQKKIWALAAHCKNTAEFTDLVAGMNSLTLYLKSSAGLTKWLEALPLLWDELKSSTFTGKHHLIETLYEGEDLAYVARFHNLSIDEVISIHSKAQYHVLFLGFQPGFAYLHGLDTRLHTPRRAEPRIKVPKGAVAIGAAQTGIYPSDTPGGWHIIGHTNTTLFNSSHSQPCLMQPGDTLEFVALKNQGAGA
MGSDKIHHHHHHMSSEAIFEHGYENIDLVREYDARYAGEDVHYETFARLANFFGRDMRPHWHDRYFQLHYLVTGRITLQLDEHFYSVRAPLFVLTPPSVPHTFFTNPDSDGHVLTVRQELIWPLVEKLWPGSGDAAMLQGICLSLEGMEHTLAALNHYWPIISLEFQQNKQGREILLQSLAQSIFTILLREAPPNDISTCSVRGEMCLFQKFNRLIDENYRQHLMVPEYATMLGMSESRLTELCRRFANQSPKRLIFERVSREARRLLLYSEQSINQIALDLGYKDPAYFARFFNRMMGCSPTQFRGR
MGSDKIHHHHHHMSSLEDILALTSALIRYRSTDTRPEERDRCAAHIMRWCDAEDIASSRVDNNGVTSLIIGPASKRAPLLFMAHYDVVEGPDALFQPVLSDSVLKGRGSIDDKYAVALSLVLFRDHLRHLRAQGRSQDDMPLQLLITGDEETGGYDGARHALGHVGAEFCIALDGGSPSTVITKEKGIIDCTLTAHGRAAHGARPWLGTNAVECLMADYMALKRLFPGQDDPTDPIHWHRSLNLGIVRAGSAVNQVPDLATAWLDVRYTEHDDPQALFAAMQESIRGELVATRTEPVFHSGETPWIDRLLACAPGASTGFAHGASDARFLSEHGIPGVVWGAEGETSQHGPDEHLLVDSLDTVHKALAAFVRTAGGTA
MGSDKIHHHHHHMSSVHHKIIKHKIGLLNLAAELGNVSRACKVMGFSRDTFYRYQAAVETGGVEALIDANRRKPNIKNRVEEATEAAILAFALEQPAFGQVRVSNELRKRGIFVSPSGVRSVWLRQNLESFKKRLSALEKHIAETGAVLTEAQVQALEKKQEDDVAQGEIETAHPGYLGSQDTFYVGTLKGVGRIYQQTFVDTYSKWAAAKLYTNKTPITSADMLNDRVLPFFAEQSMGIIRILTDRGTEYCGKPENHDYQLYLALNDIEHSKTKANHPQTNGICERFHKTILQEFYQVTFRRKIYQSIEELQHDLDDWMAYYNSVRTHQGKMCCGRTPMQTLIDAKEIWDDKITELNN
MGSDKIHHHHHHMSTDNDTETDDSGGHCSTPDSDGEVAEDIAIVAFERKRDTAAEIVAGIGDRYDSIDILDYHGDVFAEHWGEYDCFVGLMASGIAMRKTAGLLDDKWEDPAVVVVDEALTWAIPLTGGHHGANQVADDLASMGAVPAMTTASEAAGKQGVEERAKALDTHVVNGDSTVATNLAVLDENLGPVARLDGPQAVVVGDDVTVLKRNSDDGVVLGTGSVSGADEQQFRDAWAASLAATDYDIDDVEFVATGTRKADEEGLLAAAEALGLGVVAFEKETLEAHEGPTPSRSKELIGWPGIAEASAIAGGRDNELLAEKERYDEAVTVAVGK
MGSDKIHHHHHHMSTQYWEEEIEIMSREKLQELQLQRLKKTINIAANSPYYKEVFSKNGITGDSIQSLDDIRKIPFTTKSDMRANYPFGLVAGDMKRDGVRIHSSSGTTGNPTVIVHSQHDLDSWANLVARCLYMVGIRKTDVFQNSSGYGMFTGGLGFQYGAERLGCLTVPAAAGNSKRQIKFISDFKTTALHAIPSYAIRLAEVFQEEGIDPRETTLKTLVIGAEPHTDEQRRKIERMLNVKAYNSFGMTEMNGPGVAFECQEQNGMHFWEDCYLVEIIDPETGEPVPEGEIGELVLTTLDREMMPLIRYRTRDLTRILPGKCPCGRTHLRIDRIKGRSDDMFIIKGVNIFPMQVEKILVQFPELGSNYLITLETVNNQDEMIVEVELSDLSTDNYIELEKIRRDIIRQLKDEILVTPKVKLVKKGSLPQSEGKAVRVKDLRDNK
MGSDKIHHHHHHMSVFATFASQTRIQAILVMQTALSVSSRLSLEPTGTDMPVIKGPDGLPFIPGSSIKGVVRFQVERILRTWDRRPDFWACDPFDAPCIPAKKKEQLLNDAETDQSFAETVWKESCTACRLFGSPWFAGRVAFRDAYLLNPEDLPTLTQIRDGVGIDRDLGTARSGIKYDFETVIPGARFGLEILAENLEEWEIGFLLTVLRLWEEGGIAIGGKTTRGPGWGKLQEIKIQRVGISNLMDYLLERKSSEVAATQFLQTFREWLKERGAGDA
MGSDKIHHHHHHMSVRQPLPERLRPTVLEGFVGQTHLTQRIEALLRANRLPSLLLFGPPGCGKSTLALLLAKARSANVLRLSAPEAGLQHLRKQLHGVDILVLDELHRFSKAQQDFFLPLLESGDITMLATTTENPSFSVTRQLLSRLHVLRLRPLGRAELLELGRRGAVAQEVQIEDDVLDLLASMSHGDARTMLNLLEYVAALPEDKRDIEGVRSAMPEIVSRHDKDGDNHYELASALIKSIRGSDPDAALYYLACLLEGGEDPRFVCRRLILSASEDVGLADPQALPLAVACMQAVEYVGMPEGFIPMAQTTVHLALARKSNSTYAAYINAARELKTQGRKGVPLHLRNPSTRLQKEWGYGKGYRYPHSYPEGWIEQEYLPEGLEDRRFYAPRENGEEPRLSAWWRKLQRQRPPRRGSGE
MGSDKIHHHHHHMSVSISEKTKQAYQHAVEQASVSLLRQPQNSMADELRLLAEQLQPNEKRDVYGGGSLINDFEDEVAELLGKPAALFLPTGTLAQPLALRVHADERQRNGVALHPTSHLMLHEHMGFEALWKLNGTTTGFADNPITLNDLKSVQTDDLASVLLELPMREIGGQLPNWDDLVMQSEWARQHNIAMHLDGARLWQVPAAYGCSLPEVCELFDSVYVSFYKDLGGISGAILAGSEGFIEQAKIWARRAGGNIITQYPQVLSARHGLKENLPIMPEAVNYARALGEALSALNGVRVNPETPQVAMFHLHFALKANELSEKITDYASNTGVVLLPLPRAEMNNEAICEVSIGRNAMSQPQSFWLRHFKAFLDTL
MGSDKIHHHHHHMSVVIEFDKVSRQFVRRQNASTIQERFMGLIRGLPPAEAFWAVRDVSFAVEEGQSIGLVGHNGAGKSTILKLMTRVLEPTSGRVTTQGRIAALLELGSGFHPELSGRENVFLYGSLMGFGRKEMQRKLPEIIEFSEIGPFLDTEVKHYSSGMYTRLAFAVATAVDPDILITDEVLAVGDETFQRKCIDRIYGFRRAGKTIVFVSHALDVVRSLCDVAVWLDHGEMKAYGEAGKVVDAYLADVNERERAEFEERLHSEDDDQIRESRMRRGSREVEITRVQLLDAQGRERITFRTHEPLTIRIHYLAHQRIERPVFGVGINHESGPWLTGPNTGFDKYHIPFIEGAGIIDYHIPRLPFLGGRYLVSASATDSTQLYEFDVHDRMYPLVIHSDGLSQRYGMVFCEGNWSWHG
MGSDKIHHHHHHMSYLKISDTIVETFRFIHYEQSNFLNRLHGGDMLFFLVETGMISASKVAMGTTLLASLDDVVFKKPVRLGDIVKVRAKTVYIGNTSLEVEVRAFVRDEEVVSAYATYVKVDDLLRPTPVNVKIMAESEDDKRKIDEAKKRRENRLSKIVNRQKMRFYVDDITDGLRYRISNVIHVSPELTYDGRIMSAGKLLKLMDDLGGIICLRYLDHNSSNLYDNSFNAVVTVAVKGLAFYSPIRLNDIILIRAGLVYVGNTSADILINVVREDLNGAKEHVATAYFTYVRVDKDGKPIKIPEYTPVTEREKRLYEEALTRRGLRK
MGSDKIHHHHHHMTALDFLPNPPIKQELITPLFHLPYPNPSPIDPKVYKEQSNQAKALAQVFKKEEAHDFDYSSGSFLELFLALALEKKKLAIASSLHYNALKAAREVQKLGIEIFWLHPDVKSGVIEPNSLQEARTRGFELFFLPWANEDLLTLNPLESYGFSLDERLFVEASYPLALGIALPLLEKAHWLINGEILGIPRGYGAILGGEIPLHRPLMRANLFGVLHAALKAREILIENDDQKTLFYEHLSALLGENLSLFAPLKSCLPNALPLRFKGIRARSLIQALLLEKITSLNGQECLFGFSKPSSVLQSMGYDEDEARELLSVSFLPFGSIEELERIAKILALRYKQIHLYS
MGSDKIHHHHHHMTDRSAVPVDSPAGSTRTVILEKALELFAETGFNGVSMRRIAQEVGINPATLYHHFVHKEDLYEQVLRFAYAEQAAHFSALVSIEGTPQSQLGEFIREFAFYIAKDQHFFRLVKREQLEGNSERLKMLVDLLFGKQYEAMVRSVGRVTQAFDTHMLVTSLLGLVLHHYETRHMRQFFVEYMPSQDDPEVVADHCCRLFFFGIQGAGAAQEVPYRSEQSLLSADGEHSRDGAG
MGSDKIHHHHHHMTEIKYKVITKDAFALPYTIIKAKNQPTKGVIVYIHGGGLMFGKANDLSPQYIDILTEHYDLIQLSYRLLPEVSLDCIIEDVYASFDAIQSQYSNCPIFTFGRSSGAYLSLLIARDRDIDGVIDFYGYSRINTEPFKTTNSYYAKIAQSINETMIAQLTSPTPVVQDQIAQRFLIYVYARGTGKWINMINIADYTDSKYNIAPDELKTLPPVFIAHCNGDYDVPVEESEHIMNHVPHSTFERVNKNEHDFDRRPNDEAITIYRKVVDFLNAITMV
